Laboratory results taken from patent US20240025971A1 (ATRECA, published 2024).

Assays:
SARS-CoV-2 S2 protein = target: T1, SARS-CoV-2 S2 protein (SARS-CoV-2, UniProt P0DTC2 686-1213); assay: BLI
T1 construct: domain: S2 protein; also called S2 monomer

[1] = target: SARS-CoV-2 Nucleocapsid (N) protein (SARS-CoV-2, UniProt P0DTC9 1-419); assay: BLI
[2] = target: T2, SARS-CoV-2 Envelope (E) protein (SARS-CoV-2, UniProt P0DTC4 1-75); assay: ELISA
[3] = target: SARS-CoV-1 spike (pseudovirus) (SARS-CoV-1, UniProt P59594 14-1255); assay: cell-based or functional assay
[4] = target: SARS-CoV-2 Wuhan-1 full-length Spike protein (SARS-CoV-2, UniProt P0DTC2 14-1273); assay: cell-based or functional assay
[5] = target: T3, SARS-CoV-2 Spike (S) trimer (SARS-CoV-2, UniProt P0DTC2 14-1208); assay: ELISA, S trimer coated, 1:50 dilution
T3 construct: also called Spike trimer

[6] = target: T4, SARS-CoV-2 Receptor Binding Domain (RBD) (SARS-CoV-2, UniProt P0DTC2 319-541); assay: BLI
T4 construct: also called RBD protein

SARS-CoV-2 S1 protein = target: T5, SARS-CoV-2 S1 protein (SARS-CoV-2, UniProt P0DTC2 16-685); assay: BLI
T5 construct: domain: S1 protein; also called S1 monomer

[7] = target: T3, SARS-CoV-2 Spike (S) trimer; assay: ELISA
[8] = target: T2, SARS-CoV-2 Envelope (E) protein; assay: ELISA, Envelope protein
[9] = target: SARS-CoV-2 Spike (S) trimer (SARS-CoV-2, UniProt P0DTC2 14-1208); assay: ELISA, S trimer coated, 1:50 dilution

Binder | binding result (SARS-CoV-2 S2 protein) | binding result [1] | binding result [2] | Pseudovirus Neutralization [3] [µg/mL] | Pseudovirus Neutralization [4] [µg/mL] | Optical Density (OD; 450 nm) [5] [OD450] | binding result [6] | binding result (SARS-CoV-2 S1 protein) | binding result [7] | Optical Density (OD; 450 nm) [8] [OD450] | Optical Density (OD; 450 nm) [9] [OD450]
AB-009271 (antibody, V domains shown, human IgG1) VH: EVQLVESGGGLIQPGGSLRLSCAASGFIVSSNYMSWVRQAPGKGLEWVSVIYSGGSTYYADSVKGRFTISRDNSKNTLYLQMNSLRAEDTAVYYCARDYGDFYFDYWGQGTLVTVSS VL: EIVMTQSPATLSVSPGERATLSCRASQSVSSNLAWYQQKPGQAPRLLIYGASTRATGIPARFSGSGSGTEFTLTISSLQSEDFAVYYCQQYYNWPRTFGQGTKVEIK | no binding (tested: 300 nM) | no binding (tested: 300 nM) | no binding (tested: 2-fold over hIgG1 background) | > 50 | 0.058 | 2.94 | – | – | – | – | –
AB-009613 (antibody, V domains shown, human IgG1) VH: EVQLVESGGGLIQPGGSLRLSCAASGFTVSSNYMSWVRQAPGKGLEWVSVIYSGGSTYYADSVKGRFTISRDNSKNTLYLQMNSLRAEDTAVYYCARDYGDFYFDYWGQGTLVTVSS VL: not shown | no binding (tested: 300 nM) | no binding (tested: 300 nM) | no binding (tested: 2-fold over hIgG1 background) | > 50 | 1.53 | 2.47 | – | – | – | – | –
AB-009610 (antibody, V domains shown, human IgG1) VH: QVQLVQSGAEVKKPGSSVKVSCKASGGTFSNYAISWVRQAPGQGLEWMGRIIPILGIANYAQKFQGRVTITADKSTSTAYMELSSLRSEDTAVYYCATTPYYYDSSGYYLDYWGQGTLVTVSS VL: not shown | no binding (tested: 300 nM) | no binding (tested: 300 nM) | no binding (tested: 2-fold over hIgG1 background) | > 50 | 6.77 | 2.02 | – | – | – | – | –
AB-009190 (antibody, V domains shown, human IgG1) VH: QVQLVESGGGVVQPGRSLRLSCAASGFTFSSYAMHWVRQAPGKGLEWVAVISYDGSNKYYADSVKGRFTISRDNSKNTLYLQMNSLRAEDTAVYYCARLNGDAYYYYGMDVWGQGTTVTVSS VL: not shown | no binding (tested: 300 nM) | – | – | – | – | – | no binding (tested: 300 nM) | no binding (tested: 300 nM) | no binding (tested: 2-fold over hIgG1 background) | 0.469 | –
AB-009634 (antibody, V domains shown) VH: QVTLKESGPALVKPTQTLTLTCTFSGFSLSTSGMRVSWIRQPPGKALEWLARIDWDDDKFYSTSLKTRLTISKDTSKNQVVLTMTNMDPVDTATYYCARYYYYGMDVWGQGTTVTVSS VL: not shown | – | – | – | – | – | – | – | – | – | – | 2.46
AB-009666 (antibody, V domains shown, human IgG1) VH: EVQLVESGGGLVQPGGSLRLSCAASGFTFSSYDMHWVRQATGKGLEWVSTIGTAGDTYYPGSVKGRFTISRENAKNSLYLQMNSLRAEDTAVYYCARVNYDSSGYPTYWYFDLWGRGTLVTVSS VL: DIQMTQSPSSLSASVGDRVTITCRASQSISRYLNWYQQKPGKAPKLLIYAASSLQSGVPSRFSGSGSGTDFTLTISSLQPEDFATYNCQQSYSSPPWTFGQGTKVEIK | no binding (tested: 300 nM) | no binding (tested: 300 nM) | no binding (tested: 2-fold over hIgG1 background) | – | – | 2.76 | – | – | – | – | –
AB-009213 (antibody, V domains shown, human IgG1) VH: EVQLVESGGGLVKPGGSLRLSCAASGFTFSSYSMNWVRQAPGKGLEWVSSISSSSSYIYYADSVKGRFTISRDNAKNSLYLQMNSLRAEDTAVYYCARDKLREDGDYDDAFDIWGQGTMVTVSS VL: not shown | no binding (tested: 300 nM) | – | – | – | – | – | no binding (tested: 300 nM) | no binding (tested: 300 nM) | no binding (tested: 2-fold over hIgG1 background) | – | –
AB-009627 (antibody, V domains shown, human IgG1) VH: QVQLQQWGAGLLKPSETLSLTCAVYGGSFSGYYWSWIRQPPGKGLEWIGEINHSGSTNYNPSLKSRVTISVDTSKNQFSLKLSSVTAADTAVFYCARGGYSSSWYGEKYWFDPWGQGTLVTVSS VL: QSALTQPRSVSGSPGQSVTISCTGTSSDVGGYNYVSWYQQHPGKAPKLMIYDVSKRPSGVPDRFSGSKSGNTASLTISGLQAEDEADYYCCSYAGSPYVFGTGTKVTVL | – | no binding (tested: 300 nM) | no binding (tested: 2-fold over hIgG1 background) | – | – | – | – | no binding (tested: 300 nM) | – | – | –
